“And” between values parts separate entries of the source, which are not always exact repeats. Equal entries are not always repeated.
Experiments:
GLP receptor = assay: cell-based or functional assay
human IL-13 [1] = molecular target: T1, human IL-13 (human, UniProt P35225 35-146, limits assumed, biotinylated in the binding ELISA and on the Biacore chip); assay: sandwich ELISA on hIL-13; 4.7 mg/mL in phosphate/PEG1000/sucrose, LC+, material remaining in cup
T1 construct: also called hIL-13; Hu IL-13

human IL-13 [2] = molecular target: T1, human IL-13; assay: sandwich ELISA on hIL-13; 4.7 mg/mL in phosphate/PEG1000/sucrose, LC+, aerosolized material
human IL-13 [3] = molecular target: T1, human IL-13; assay: sandwich ELISA on hIL-13; 2.6 mg/mL in PBS, E-flow, material remaining in cup
human IL-13 [4] = molecular target: T1, human IL-13; assay: sandwich ELISA on hIL-13; 2.6 mg/mL in PBS, LC+, aerosolized material
cynomolgous IL-13 [5] = molecular target: T2, cynomolgous IL-13 (cynomolgous, UniProt Q0PW92 19-132, Presumably biotinylated for capture on the streptavidin (SA) chip; biotinylation sites not stated.); assay: Biacore, about 100 RU cynomolgous IL-13 on SA chip, dAb in flow
T2 construct: also called cyno IL-13; cIL-13

cynomolgous IL-13 [6] = molecular target: T2, cynomolgous IL-13; assay: cell-based or functional assay
human IL-13 [7] = molecular target: T1, human IL-13; assay: cell-based or functional assay
human IL-13 [8] = molecular target: T1, human IL-13; assay: sandwich ELISA on hIL-13; 2.6 mg/mL in PBS, E-flow, aerosolized material
human IL-13 [9] = molecular target: T1, human IL-13; assay: sandwich ELISA on hIL-13; 2.6 mg/mL in PBS, LC+, material remaining in cup
human IL-13 [10] = molecular target: T1, human IL-13; assay: sandwich ELISA on hIL-13; 4.7 mg/mL in phosphate/PEG1000/sucrose, E-flow, aerosolized material
human IL-13 [11] = molecular target: T1, human IL-13; assay: sandwich ELISA on hIL-13; 4.7 mg/mL in phosphate/PEG1000/sucrose, E-flow, material remaining in cup
human IL-13 [12] = molecular target: T1, human IL-13; assay: Biacore, about 100 RU biotinylated human IL-13 on SA chip, dAb in flow
human IL-13 [13] = molecular target: T1, human IL-13; assay: sandwich ELISA on hIL-13; 2.3 mg/mL in phosphate/PEG1000/sucrose, LC+, material remaining in cup
human IL-13 [14] = molecular target: T1, human IL-13; assay: sandwich ELISA: dAb mixed with hIL-13, capture and detection by mouse anti-human IL-13 antibodies, OD450
human IL-13 [15] = molecular target: T1, human IL-13; assay: sandwich ELISA on hIL-13; 2.3 mg/mL in phosphate/PEG1000/sucrose, LC+, aerosolized material
human IL-13 [16] = molecular target: T1, human IL-13; assay: sandwich ELISA on hIL-13; 2.3 mg/mL in phosphate/PEG1000/sucrose, E-flow, aerosolized material
cynomolgous IL-13 [17] = molecular target: T2, cynomolgous IL-13; assay: cell-based or functional assay; remark: listed apart in the source
human IL-13 [18] = molecular target: T1, human IL-13; assay: cell-based or functional assay; remark: listed apart in the source
human IL-13 [19] = molecular target: T1, human IL-13; assay: binding ELISA: biotinylated human IL-13 on NeutrAvidin plate, bound dAb detected with anti-human Ig (VH specific)
human IL-13 [20] = molecular target: T1, human IL-13; assay: sandwich ELISA on hIL-13; material in 1xPBS, not nebulised
human IL-13 [21] = molecular target: T1, human IL-13; assay: 'Binding Assay' on hIL-13 as headed in Table 12; PARI LC*, reservoir sample at 3 mins
human IL-13 [22] = molecular target: T1, human IL-13; assay: 'Binding Assay' on hIL-13 as headed in Table 12; PARI LC*, reservoir sample at 15 mins
human IL-13 [23] = molecular target: T1, human IL-13; assay: 'Binding Assay' on hIL-13 as headed in Table 12; PARI LC*, aerosol sample at 29 mins
human IL-13 [24] = molecular target: T1, human IL-13; assay: 'Binding Assay' on hIL-13 as headed in Table 12; 20 mg/ml in PBS, before nebulisation
human IL-13 [25] = molecular target: T1, human IL-13; assay: 'Binding Assay' on hIL-13 as headed in Table 12; PARI LC*, reservoir sample at 29 mins
human IL-13 [26] = molecular target: T1, human IL-13; assay: 'Binding Assay' on hIL-13 as headed in Table 12; PARI LC*, aerosol sample at 3 mins
human IL-13 [27] = molecular target: T1, human IL-13; assay: 'Binding Assay' on hIL-13 as headed in Table 12; PARI LC*, aerosol sample at 15 mins

T2 sequence (Q0PW92 entry or part of it limits assumed, form in doubt): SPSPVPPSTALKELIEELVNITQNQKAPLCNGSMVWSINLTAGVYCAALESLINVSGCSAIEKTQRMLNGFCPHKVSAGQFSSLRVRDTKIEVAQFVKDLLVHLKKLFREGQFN

Work on “Exendin 4 (G4S)3 DOM7h-14 fusion (DAT0115) (from UniProt P26349)” yielded a DAT01 cell assay EC50, CHO 6CRE/luciferase reporter (sample: DAT0115 LC+ aerosol 3 mins) (GLP receptor) of 296 pM, a DAT01 cell assay EC50, CHO 6CRE/luciferase reporter (sample: DAT0115 LC+ aerosol 15 mins) (GLP receptor) of 316 pM and a DAT01 cell assay EC50, CHO 6CRE/luciferase reporter (sample: DAT0115 LC+ aerosol 29 mins) (GLP receptor) of 142 pM. For the same molecule, the DAT01 cell assay EC50, CHO 6CRE/luciferase reporter (sample: DAT0115 LC+ cup 3 mins) (GLP receptor) was 725 pM, the DAT01 cell assay EC50, CHO 6CRE/luciferase reporter (sample: DAT0115 LC+ cup 15 mins) (GLP receptor) was 453 pM and the DAT01 cell assay EC50, CHO 6CRE/luciferase reporter (sample: DAT0115 LC+ cup 29 mins) (GLP receptor) was 445 pM. For the same molecule, the DAT01 cell assay EC50, CHO 6CRE/luciferase reporter (sample: DAT0115 T0) (GLP receptor) was 178 pM, the DAT01 cell assay EC50, CHO 6CRE/luciferase reporter (sample: DAT0115 e-Flow aerosol 3 mins) (GLP receptor) was 798 pM and the DAT01 cell assay EC50, CHO 6CRE/luciferase reporter (sample: DAT0115 e-Flow cup 3 mins) (GLP receptor) was 535 pM.

B1: DOM10-53-474 (other)
chain: GVQLLESGGGLVQPGGSLRLSCAASGFTFAWYDMGWVRQAPGKGLEWVSSIDWHGEVTYYADSVKGRFTISRDNSKNTLYLQMNSLRAEDTAVYYCATAEDEPGYDYWGQGTLVTVSS
For B1, the IC50 (human IL-13 [1]) was 0.0129 nM, the IC50 (human IL-13 [2]) was 0.0149 nM and the IC50 (human IL-13 [3]) was 0.0224 nM. For the same molecule, the IC50 (human IL-13 [4]) was 0.023 nM, the Kd (cynomolgous IL-13 [5]) was 2 nM and the “HEK assay cIL-13 EC50 (HEK293 STAT6 SEAP reporter)” value (cynomolgous IL-13 [6]) was 11.1 nM. For the same molecule, the “HEK assay hIL-13 EC50 (HEK293 STAT6 SEAP reporter, 6 ng/ml IL-13)” value (human IL-13 [7]) was 0.63 nM, the IC50 (human IL-13 [8]) was 0.0351 nM and the IC50 (human IL-13 [9]) was 0.0339 nM. For the same molecule, the IC50 (human IL-13 [10]) was 0.0185 nM, the IC50 (human IL-13 [11]) was 0.0214 nM and the Kd (human IL-13 [12]) was 0.028 nM. It also gave an IC50 (human IL-13 [13]) of 0.0317 nM, an EC50 (human IL-13 [14]) of 0.057 nM and an IC50 (human IL-13 [15]) of 0.0348 nM. The IC50 (human IL-13 [16]) was 0.0322 nM, the “HEK cell assay EC50, Cyno IL-13 (sample: DOM10-53-474 standard)” value (cynomolgous IL-13 [17]) was 15.2 nM and the “HEK cell assay EC50, Hu IL-13 (sample: DOM10-53-474 standard)” value (human IL-13 [18]) was 0.62 nM. The EC50 (human IL-13 [19]) was 1.08 nM and the IC50 (human IL-13 [20]) was 0.0458 nM and 0.0356 nM and 0.0289 nM and 0.0269 nM.

B2: DOM10-275-78 (other)
chain: EVQLLESGGGLVQPGGSLRLSCVASGFTFDVAEMDWVRQAPGKGLEWVSTISPSRRGTYYADSVKGRFTISRDNSKNTLYLQMNSLRAEDTAVYYCAKAYTGRSLWGPGTLVTVSS
For B2, the IC50 (human IL-13 [21]) was 1.1 nM, the IC50 (human IL-13 [22]) was 1.2 nM and the IC50 (human IL-13 [23]) was 1.1 nM. The Kd (cynomolgous IL-13 [5]) was 0.32 to 0.75 nM, the “HEK assay cIL-13 EC50 (HEK293 STAT6 SEAP reporter)” value (cynomolgous IL-13 [6]) was 1.4 nM and the “HEK assay hIL-13 EC50 (HEK293 STAT6 SEAP reporter, 6 ng/ml IL-13)” value (human IL-13 [7]) was 2.5 nM. The IC50 (human IL-13 [24]) was 1.2 nM, the IC50 (human IL-13 [25]) was 1.1 nM and the IC50 (human IL-13 [26]) was 1.1 nM. For the same molecule, the IC50 (human IL-13 [27]) was 1 nM, the Kd (human IL-13 [12]) was 0.072 to 0.1 nM and the EC50 (human IL-13 [14]) was 3.33 nM. The “HEK cell assay EC50, Cyno IL-13 (sample: DOM10-275-78 aerosol 3 mins)” value (cynomolgous IL-13 [17]) was 0.99 nM, the “HEK cell assay EC50, Cyno IL-13 (sample: DOM10-275-78 aerosol 15 mins)” value (cynomolgous IL-13 [17]) was 0.95 nM and the “HEK cell assay EC50, Cyno IL-13 (sample: DOM10-275-78 aerosol 29 mins)” value (cynomolgous IL-13 [17]) was 0.74 nM. The “HEK cell assay EC50, Cyno IL-13 (sample: DOM10-275-78 cup 3 mins)” value (cynomolgous IL-13 [17]) was 1.77 nM, the “HEK cell assay EC50, Cyno IL-13 (sample: DOM10-275-78 cup 15 mins)” value (cynomolgous IL-13 [17]) was 1.52 nM and the “HEK cell assay EC50, Cyno IL-13 (sample: DOM10-275-78 cup 29 mins)” value (cynomolgous IL-13 [17]) was 0.74 nM. The “HEK cell assay EC50, Cyno IL-13 (sample: DOM10-275-78 start)” value (cynomolgous IL-13 [17]) was 0.93 nM, the “HEK cell assay EC50, Hu IL-13 (sample: DOM10-275-78 aerosol 3 mins)” value (human IL-13 [18]) was 1.8 nM and the “HEK cell assay EC50, Hu IL-13 (sample: DOM10-275-78 aerosol 15 mins)” value (human IL-13 [18]) was 1.01 nM. The “HEK cell assay EC50, Hu IL-13 (sample: DOM10-275-78 aerosol 29 mins)” value (human IL-13 [18]) was 0.62 nM, the “HEK cell assay EC50, Hu IL-13 (sample: DOM10-275-78 cup 3 mins)” value (human IL-13 [18]) was 1.45 nM and the “HEK cell assay EC50, Hu IL-13 (sample: DOM10-275-78 cup 15 mins)” value (human IL-13 [18]) was 2.18 nM. The “HEK cell assay EC50, Hu IL-13 (sample: DOM10-275-78 cup 29 mins)” value (human IL-13 [18]) was 0.48 nM, the “HEK cell assay EC50, Hu IL-13 (sample: DOM10-275-78 start)” value (human IL-13 [18]) was 0.58 nM and the EC50 (human IL-13 [19]) was 1.3 nM.
